Positions count from the first letter of the chain named. No end group written: not given here.
Key:
[1] = target: T1, isolated G13D Ab1 peptide of SEQ ID NO:5 (human); experiment: ELISA, hybridoma supernatant on dilutions of the peptide, absorbance at 405 nm
T1 peptide: CGAGDVGKSALTI-NH2

[2] = target: T2, "wild-type" (WT) peptide having the amino acid sequence CGAGGVGKSALTI (SEQ ID NO:160); experiment: further ELISA on WT peptide; weaker than on the mutant peptide
T2 peptide: CGAGGVGKSALTI

[3] = target: T1, isolated G13D Ab1 peptide of SEQ ID NO:5; experiment: further ELISA, mutant peptide compared with WT peptide

B1: 4B8-1 (antibody, V domains shown)
VH: EVQLQQSGPERVKPGASVKMSCKASGYTFTDYSMHWVKQSHGKSLEWIGYINPNNGGASYNQKFKGKATLTVNKSSSTAYMELRSLTSEDSAVYYCARGDYYGGGYWGQGTTLTVSS
VL: ENVLTQSPAIMSASPGEKVTMTCSASSSVSYMHWYQQKSSTSPKLWIYDTSKVASGVPGRFSGSGSGNSYSLTINSMEAEDVATYYCFQGSGYPLTFGAGTKLELK
notes: Mouse monoclonal IgG from a hybridoma, tested as hybridoma supernatant
[1]
  binding result: binds
[2]
  binding result: binds

B2: 7D11-1 (antibody, V domains shown)
VH: QVQLQQPGAEFVKPGASVKLSCKASGYTFTRYWMHWVKQRPGRGLEWIGRIDPNSGGTTFNEKFKSKATLTVDKPSSTAYMQLSSLTSEDSAVYYCAREVGGYWGQGTTLTVSS
VL: B1 VL with S26G, S30D, V53L, N75S, K106R
notes: as for B1
[1]
  binding result: binds
[2]
  binding result: binds

B3: 7G2-1 (antibody, V domains shown)
VH: QVTLKESGPGILQPSQTLSLTCSFSGFSLSTFGMGVGWIRQPSGKGLEWLAHIWWDDDKNYNPALKSRLTISKDTSKNQVFFKIANVDTADTATYYCVQLSTMGDGGYWGQGTLVTVSA
VL: NIVMTQSPKSMSMSVGERVTLSCKASENVGTYVSWYQQKPGQSPKLLIYGASNRYTGVPDRFTGSGSGTDFILTISSVQAEDLADYHCGQSYNYPFTFGSGTKLEIK
notes: as for B1
[1]
  binding result: binds

B4: 11D6-1 (antibody, V domains shown)
VH: EVQLQQSGPELVKPGASVKMSCKTSGYTFTDYTMHWVKQSHGKSLEWIGYINPNNGGTYYNQRFKGKATLTVSRSSSTAYIELRSLTSDDSAVYYCARGDYYGGGYWGQGTTLRVSS
VL: B1 VL with S26G, V53L, N75S, A99D
notes: as for B1
[3]
  binding result: binds
[2]
  binding result: binds
